Source: US20180155451A1 (published 2018)

T1: FcγRIIa R (human, UniProt P12318 34-217)
T1 construct: extracellular domain; also called FcgRIIa R type; 2aR
T1 sequence (looked up): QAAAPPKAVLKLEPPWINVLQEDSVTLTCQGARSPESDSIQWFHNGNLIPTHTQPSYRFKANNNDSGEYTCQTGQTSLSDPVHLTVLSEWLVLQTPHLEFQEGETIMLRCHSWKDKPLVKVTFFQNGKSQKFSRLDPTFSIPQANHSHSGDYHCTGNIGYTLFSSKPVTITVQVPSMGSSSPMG

T2: FcγRIIb (human, UniProt P31994 43-217)
T2 construct: extracellular domain; also called 2b; FcgRIIb
T2 sequence (looked up): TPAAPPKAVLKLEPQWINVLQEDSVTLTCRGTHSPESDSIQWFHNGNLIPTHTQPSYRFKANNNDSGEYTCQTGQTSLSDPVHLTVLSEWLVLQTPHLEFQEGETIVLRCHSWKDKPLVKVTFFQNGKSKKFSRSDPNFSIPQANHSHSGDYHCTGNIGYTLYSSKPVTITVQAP


Legend:
FcγRIIa R = target: T1, FcγRIIa R; assay: SPR Biacore; vs GpH7-B3/GpL16-k0 =100
Protocol: (§1) Analysis of interaction between objective antibody and the FcγR was carried out using Biacore T100 (GE Healthcare). HBS-EP+ (GE Healthcare) was used as the running buffer, and the measurement temperature was set to 25° C. Chips produced by immobilizing the antigen peptide by the amine coupling method to a Series S Sencor Chip CM5 (GE Healthcare), or alternatively, chips produced by allowing preliminarily biotinylated antigen peptides to interact with and immobilize onto a Series S Sensor Chip SA (certified) (GE Healthcare) were used. Antibodies of interest were captured onto an antigen peptide-immobilized chip, and allowed to interact to each FcγR diluted with running buffer. To regenerate and repeatedly use the chip, the antibodies captured on the chip were washed off by reacting 10 mM glycine-HCl, pH 1.5.
(§2) The FcγR-binding activity of each antibody was assessed primarily using as an indicator the FcγR-binding activity and dissociation constant for FcγR.

FcγRIIb = target: T2, FcγRIIb; assay: SPR (Biacore), binding relative to GpH7-B3/GpL16-k0 = 100
Protocol: as §1, §2

| Binder | Ho/Con_2aR (FcγRIIa R) | Ho/Con_2b (FcγRIIb) |
| --- | --- | --- |
| GpH7-B3 variant P331_02A/GpL16-k0 (antibody, human IgG1, kappa, also called Ho Ab P331_02A) heavy: not shown light: DIVMTQSPLSLPVTPGEPASISCQASESLVHSNRNTYLHWYLQKPGQSPQLLIYKVSNRFSGVPDRFSGSGSGTDFTLKISRVEAEDVGVYYCSQNTHVPPTFGQGTKVEIERTVAAPSVFIFPPSDEQLKSGTASVVCLLNNFYPREAKVQWKVDNALQSGNSQESVTEQDSKDSTYSLSSTLTLSKADYEKHKVYACEVTHQGLSSPVTKSFNRGEC | 102 % of control |  |
| GpH7-B3 variant P271_08L/GpL16-k0 (antibody, human IgG1, kappa, also called Ho Ab P271_08L) heavy: not shown light: DIVMTQSPLSLPVTPGEPASISCQASESLVHSNRNTYLHWYLQKPGQSPQLLIYKVSNRFSGVPDRFSGSGSGTDFTLKISRVEAEDVGVYYCSQNTHVPPTFGQGTKVEIERTVAAPSVFIFPPSDEQLKSGTASVVCLLNNFYPREAKVQWKVDNALQSGNSQESVTEQDSKDSTYSLSSTLTLSKADYEKHKVYACEVTHQGLSSPVTKSFNRGEC | 102 % of control |  |
| GpH7-B3 variant A327_18N/GpL16-k0 (antibody, human IgG1, kappa, also called Ho Ab A327_18N) heavy: not shown light: DIVMTQSPLSLPVTPGEPASISCQASESLVHSNRNTYLHWYLQKPGQSPQLLIYKVSNRFSGVPDRFSGSGSGTDFTLKISRVEAEDVGVYYCSQNTHVPPTFGQGTKVEIERTVAAPSVFIFPPSDEQLKSGTASVVCLLNNFYPREAKVQWKVDNALQSGNSQESVTEQDSKDSTYSLSSTLTLSKADYEKHKVYACEVTHQGLSSPVTKSFNRGEC |  | 101 % of control |
| GpH7-B3 variant G237_10E/GpL16-k0 (antibody, human IgG1, kappa, also called Ho Ab G237_10E) heavy: not shown light: DIVMTQSPLSLPVTPGEPASISCQASESLVHSNRNTYLHWYLQKPGQSPQLLIYKVSNRFSGVPDRFSGSGSGTDFTLKISRVEAEDVGVYYCSQNTHVPPTFGQGTKVEIERTVAAPSVFIFPPSDEQLKSGTASVVCLLNNFYPREAKVQWKVDNALQSGNSQESVTEQDSKDSTYSLSSTLTLSKADYEKHKVYACEVTHQGLSSPVTKSFNRGEC |  | 17.8 % of control |
| GpH7-B3 variant G237_04F/GpL16-k0 (antibody, human IgG1, kappa, also called Ho Ab G237_04F) heavy: not shown light: DIVMTQSPLSLPVTPGEPASISCQASESLVHSNRNTYLHWYLQKPGQSPQLLIYKVSNRFSGVPDRFSGSGSGTDFTLKISRVEAEDVGVYYCSQNTHVPPTFGQGTKVEIERTVAAPSVFIFPPSDEQLKSGTASVVCLLNNFYPREAKVQWKVDNALQSGNSQESVTEQDSKDSTYSLSSTLTLSKADYEKHKVYACEVTHQGLSSPVTKSFNRGEC |  | 140 % of control |
| GpH7-B3 variant P331_20W/GpL16-k0 (antibody, human IgG1, kappa, also called Ho Ab P331_20W) heavy: not shown light: DIVMTQSPLSLPVTPGEPASISCQASESLVHSNRNTYLHWYLQKPGQSPQLLIYKVSNRFSGVPDRFSGSGSGTDFTLKISRVEAEDVGVYYCSQNTHVPPTFGQGTKVEIERTVAAPSVFIFPPSDEQLKSGTASVVCLLNNFYPREAKVQWKVDNALQSGNSQESVTEQDSKDSTYSLSSTLTLSKADYEKHKVYACEVTHQGLSSPVTKSFNRGEC | 102 % of control |  |
| GpH7-B3 variant S267_03V/GpL16-k0 (antibody, human IgG1, kappa, also called Ho Ab S267_03V) heavy: not shown light: DIVMTQSPLSLPVTPGEPASISCQASESLVHSNRNTYLHWYLQKPGQSPQLLIYKVSNRFSGVPDRFSGSGSGTDFTLKISRVEAEDVGVYYCSQNTHVPPTFGQGTKVEIERTVAAPSVFIFPPSDEQLKSGTASVVCLLNNFYPREAKVQWKVDNALQSGNSQESVTEQDSKDSTYSLSSTLTLSKADYEKHKVYACEVTHQGLSSPVTKSFNRGEC | 115 % of control |  |
| GpH7-B3 variant A327_07I/GpL16-k0 (antibody, human IgG1, kappa, also called Ho Ab A327_07I) heavy: not shown light: DIVMTQSPLSLPVTPGEPASISCQASESLVHSNRNTYLHWYLQKPGQSPQLLIYKVSNRFSGVPDRFSGSGSGTDFTLKISRVEAEDVGVYYCSQNTHVPPTFGQGTKVEIERTVAAPSVFIFPPSDEQLKSGTASVVCLLNNFYPREAKVQWKVDNALQSGNSQESVTEQDSKDSTYSLSSTLTLSKADYEKHKVYACEVTHQGLSSPVTKSFNRGEC |  | 37.6 % of control |
| GpH7-B3 variant P331_04F/GpL16-k0 (antibody, human IgG1, kappa, also called Ho Ab P331_04F) heavy: not shown light: DIVMTQSPLSLPVTPGEPASISCQASESLVHSNRNTYLHWYLQKPGQSPQLLIYKVSNRFSGVPDRFSGSGSGTDFTLKISRVEAEDVGVYYCSQNTHVPPTFGQGTKVEIERTVAAPSVFIFPPSDEQLKSGTASVVCLLNNFYPREAKVQWKVDNALQSGNSQESVTEQDSKDSTYSLSSTLTLSKADYEKHKVYACEVTHQGLSSPVTKSFNRGEC | 106 % of control |  |
| GpH7-B3 variant G237_08L/GpL16-k0 (antibody, human IgG1, kappa, also called Ho Ab G237_08L) heavy: not shown light: DIVMTQSPLSLPVTPGEPASISCQASESLVHSNRNTYLHWYLQKPGQSPQLLIYKVSNRFSGVPDRFSGSGSGTDFTLKISRVEAEDVGVYYCSQNTHVPPTFGQGTKVEIERTVAAPSVFIFPPSDEQLKSGTASVVCLLNNFYPREAKVQWKVDNALQSGNSQESVTEQDSKDSTYSLSSTLTLSKADYEKHKVYACEVTHQGLSSPVTKSFNRGEC |  | 49.4 % of control |
